Data from patent publication US20230265185A1 (NATIONAL RESEARCH COUNCIL OF CANADA, published 2023).

Columns and labels:
[1] = biological target: T1, recombinant extracellular domain of the predominant human CD22-beta isoform (CD22-ECD) (human, UniProt P20273 20-687, CHO-expressed glycoprotein. Capture on an SA chip implies biotinylation, but the patent does not state it for SPR.); experiment: SPR, Biacore T200, VHH over immobilized CD22-ECD
T1 construct: Expressed in CHO-3E7 cells, IMAC and SEC purified, monomeric fraction; Results say it was immobilized onto a CM5 dextran chip; also called human CD22-ECD; hCD22 ecto-domain
T1 sequence: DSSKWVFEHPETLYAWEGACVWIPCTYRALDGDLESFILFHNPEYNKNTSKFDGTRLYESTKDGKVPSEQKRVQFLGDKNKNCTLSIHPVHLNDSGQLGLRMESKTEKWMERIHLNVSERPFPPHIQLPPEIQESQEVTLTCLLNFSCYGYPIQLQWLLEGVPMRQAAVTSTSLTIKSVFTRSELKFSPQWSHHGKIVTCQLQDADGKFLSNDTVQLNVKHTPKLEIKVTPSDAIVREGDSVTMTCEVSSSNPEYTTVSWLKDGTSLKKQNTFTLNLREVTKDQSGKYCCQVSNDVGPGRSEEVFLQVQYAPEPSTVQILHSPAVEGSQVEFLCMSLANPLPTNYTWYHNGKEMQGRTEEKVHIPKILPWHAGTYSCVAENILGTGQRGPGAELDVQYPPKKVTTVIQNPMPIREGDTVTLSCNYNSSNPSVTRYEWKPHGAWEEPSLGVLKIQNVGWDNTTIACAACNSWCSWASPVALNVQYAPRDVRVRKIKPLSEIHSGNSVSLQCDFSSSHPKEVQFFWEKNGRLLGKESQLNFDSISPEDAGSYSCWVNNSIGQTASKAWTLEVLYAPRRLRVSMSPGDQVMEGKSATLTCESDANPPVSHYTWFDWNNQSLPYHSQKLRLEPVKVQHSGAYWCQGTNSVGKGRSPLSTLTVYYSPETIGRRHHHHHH
Protocol: For surface Plasmon resonance, 21 selected VHHs were passed though size exclusion columns, superdex 75 (GE Healthcare), respectively, in 10 mM HEPES, pH 7.4, containing 150 mM NaCl, 3 mM EDTA, monomeric sdAb fractions were collected and protein concentrations were determined by measuring absorbance at 280 nm (A280). Analysis were performed with Biacore T200 instrument (GE Healthcare). All measurements were carried out at 25° C. in 10 mM HEPES, pH 7.4, containing 150 mM NaCl, 3 mM EDTA and 0.005% surfactant P20 (GE Healthcare). Approximately 1919 RUs of the recombinant monomeric CD22-ECD (obtained after SEC purification of the CD22-ECD) were captured on SA sensor chip (GE Healthcare) at a flow rate of 5 uL/min. Various concentration of the monomeric VHHs were injected over CD22-ECD surface, respectively using an SA surface as a reference at a flow rate of 40 µL/min. Surfaces were generated by washing with running buffer. Data were analysed with BIAevaluation 4.1 software.
The monomeric fraction of all 21 VHHs were used for SPR experiment where the human CD22-ECD was immobilized onto the CM5 dextran chip and various VHH concentration (0.6-400 nM) were passed over the sensor chip. […] All of the data collected fit a 1:1 binding model.

[2] = biological target: T2, full-length hCD22-ECD (668aa) displayed on yeast cells (human, UniProt P20273 20-687); experiment: yeast display cell ELISA, biotinylated sdAb 250 nM
T2 construct: extracellular domain; Yeast surface display fusion Aga2-HA-(insert)-MYC; also called Bin 8; CD22-ECD Full lenght; not shown: Aga2-HA display fusion partner of vector pPNL6; MYC tag
T2 sequence (looked up): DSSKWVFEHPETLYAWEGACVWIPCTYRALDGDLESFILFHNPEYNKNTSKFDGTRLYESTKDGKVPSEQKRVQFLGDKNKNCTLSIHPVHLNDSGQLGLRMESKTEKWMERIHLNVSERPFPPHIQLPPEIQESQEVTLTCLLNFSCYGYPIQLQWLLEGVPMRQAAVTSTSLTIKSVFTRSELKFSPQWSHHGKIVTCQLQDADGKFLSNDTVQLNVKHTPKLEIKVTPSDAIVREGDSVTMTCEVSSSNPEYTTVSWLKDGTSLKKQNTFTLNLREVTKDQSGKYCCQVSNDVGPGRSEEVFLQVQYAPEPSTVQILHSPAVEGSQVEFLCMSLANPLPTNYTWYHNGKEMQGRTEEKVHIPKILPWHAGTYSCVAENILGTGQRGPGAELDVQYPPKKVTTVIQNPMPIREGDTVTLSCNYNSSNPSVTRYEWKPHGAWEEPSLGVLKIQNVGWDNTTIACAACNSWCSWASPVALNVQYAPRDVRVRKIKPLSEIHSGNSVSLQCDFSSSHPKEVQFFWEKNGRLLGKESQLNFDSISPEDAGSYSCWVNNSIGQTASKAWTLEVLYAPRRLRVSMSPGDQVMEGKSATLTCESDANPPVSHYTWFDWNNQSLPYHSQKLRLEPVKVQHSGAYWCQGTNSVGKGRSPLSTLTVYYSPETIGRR
Protocol: (§1) The YSD vector (pPNL6) was from The Pacific Northwest National Laboratory, USA. […] The HRP activity was assayed with substrate TMB (tetramethyl benzidine) according to the manufacture’s conditions and read at OD₄₅₀.
The wells that gave rise to OD₄₅₀ above 0.25 were highlighted, indicating significant antibody-antigen interactions. All the sdAbs tested except hCd22_1ug-14 were assigned to specific Bin(s).

[3] = biological target: T3, hCD22 fragment Bin 6, IVR6 (aa476-575), displayed on yeast cells (human, UniProt P20273 495-594); experiment: yeast display cell ELISA, heat denatured cells (80 C, 30 min)
T3 construct: range 476-575; Range is counted on the mature ECD, not on the UniProt entry; on P20273 it would be 495-594 (my arithmetic); also called CD22 Sub-Domain 6; not shown: Aga2-HA display fusion partner of vector pPNL6; MYC tag
T3 sequence (looked up): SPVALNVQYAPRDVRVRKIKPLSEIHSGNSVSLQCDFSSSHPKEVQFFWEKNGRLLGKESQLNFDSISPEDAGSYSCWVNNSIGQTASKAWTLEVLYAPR
Protocol: as §1
Table 7 depicts the assessment of the nature of the epitopes of CD22 sdAbs to determine if the epitopes for the sdAbs are continuous (linear) or non-continuous (conformational). […] The binding of each sdAb to native and denatured CD22 fragments was measured as OD₄₅₀, and the ratio of the binding to denatured CD22 to non-denatured CD22 was calculated, with the ratio ≥ 0.5 indicative linear (L), and the ratio < 0.5 indicative of conformational (C) epitopes.

Binder	Kd [1] [nM]	koff [1] [s⁻¹]	kon [1] [M⁻¹ s⁻¹]	OD450 [2] [OD450]	Heat Inactivated CD22 OD [3] [OD450]
hCD22pas-32 (VHH, single biotin at the VHH C-terminal (biotinylation signal sequence), llama VHH, expressed in E. coli TG1, IMAC purified, monomeric SEC fraction; also called VHH # 15; 6-hCD22 pas-32) VHH: QVQLVESGGGLVQAGGSLRLSCAVSGRIFRSYVLGWFRQAPGKERELVARIGWSDTYYADSVKGRFTISRDNAKNTVDLQMNSLKPEDTAVYYCAANSPPYGPQRDEFGYWGQGTQVTVSS	23.4	0.00369	158000	0.289	–
hCD221ug-10 (VHH, single biotin at the VHH C-terminal (biotinylation signal sequence), llama VHH, expressed in E. coli TG1, IMAC purified, monomeric SEC fraction; also called VHH # 23; 5-hCD22 1ug-10) VHH: QVQLVESGGGLVQAGGSLSVSCTASESTFSIMMGWFRQAPGKQREMVAVINSAGSTNYADSAEGRFTISRDLAKKTVSLQMNSLKPEDTAVYYCYVDGYFGQGTQVTVSS	3.68	0.00176	477000	0.332	–
hCD221ug-36 (VHH, single biotin at the VHH C-terminal (biotinylation signal sequence), llama VHH, expressed in E. coli TG1, IMAC purified, monomeric SEC fraction; also called VHH # 22; 4-hCD22 1ug-36) VHH: EVQLVDSGGGLVQAGGSLRVSCEASGITFSRAAMGWYRQRPGKERERVAVVNSDSSTIYADSVKGRFTISRDNAKNTVYLQMNSLEPEDTAVYYCWSPGFGSYWGQGTQVTVSS	9.59	0.00114	119000	1.42	3.5
hCD22pas-64 (VHH, single biotin at the VHH C-terminal (biotinylation signal sequence), llama VHH, expressed in E. coli TG1, IMAC purified, monomeric SEC fraction; also called VHH # 25; 7-hCD22 pas-64) VHH: QVQLVESGGGLVQAGGSLRLSCAASGSTFSLNTMAWYRQAPGNQREYVAAASSDGYTNYADSVRGRFTISRDNDKNTMYLQMNSLRPEDTAVYYCTWGTGRFADYIYWGQGTQVTVSS	250	0.0271	108000	–	2.04
hCD221ug-80 (VHH, single biotin at the VHH C-terminal (biotinylation signal sequence), llama VHH, expressed in E. coli TG1, IMAC purified, monomeric SEC fraction; also called VHH # 1; 2-hCD22 1ug-80) VHH: QVQLVESGGGLVQPGGSLRLSCTFSGFTLDYYVMVWFRQAPGKEREAVSCITSDGVTYYADSVKGRFTISRDNAKNTVYLQMNRVKPEDTAVYYCAVDKPFYDGGIQYTCPVDFDSWGQGAQVTVSS	30.3	0.000633	20900	1.81	2.62
hCD221ug-13 (VHH, single biotin at the VHH C-terminal (biotinylation signal sequence), llama VHH, expressed in E. coli TG1, IMAC purified, monomeric SEC fraction; also called VHH # 21; 1-hCD22 1ug-13) VHH: QVQLVESGGGLVQAGDSLRLSCAGSGGSFSSVTMAWFRQAPGKDREFVAAITWSSPSTYYADSVKGRFTISRDNAKNTVYLQMNSLKPEDTAVYYCAGGRTGRGTSADTDEYNYWGQGTQVTVSS	2.91	0.000675	232000	1.19	0.272
hCD22pas-24 (VHH, single biotin at the VHH C-terminal (biotinylation signal sequence), llama VHH, expressed in E. coli TG1, IMAC purified, monomeric SEC fraction; also called VHH # 26; 8-hCD22 pas-24) VHH: QVQLVESGGGLVQAGGSLRLSCSASGITSSINSMGWHRQAPGKQRELVASIGRGGSGSTKYADSGKGRFLISRDNNKNILFLEMNSLKPEDTADYYCLEVTTDLSSYWGRGTQVTVSS	26	0.00386	148000	1.18	–
hCD221ug-61 (VHH, single biotin at the VHH C-terminal (biotinylation signal sequence), llama VHH, expressed in E. coli TG1, IMAC purified, monomeric SEC fraction; also called VHH # 14; 3-hCD22 1ug-61) VHH: QVQLVESGGGLVQAGGSLRLSCAASMSSFSQYVMYWYRQAPGKQRELVATITSYSNTNYADSVKGRFTISRDNAKSIAYLQMDSLKPEDTAVYYCNAQYGSTFIRNHWDDWGQGTQVTVSS	0.546	0.000681	1.25e+06	1.48	–
